Source: PMC9482650, “Quantitative fragmentomics allow affinity mapping of interactomes” (Nature Communications, 2022)

Assays:
Assay in all cases: holdup assay
Design in all cases: key: below the threshold = too weak to quantify, mostly under pKd 3.1 to 4
Details in all cases: plain residues with an end cap or a label only (N-terminal biotin on a linker: ado-ado)
APBA1_1, Q02410 = target: T1, APBA1_1, Q02410
T1 sequence (Q02410 651-752, limits assumed, looked up): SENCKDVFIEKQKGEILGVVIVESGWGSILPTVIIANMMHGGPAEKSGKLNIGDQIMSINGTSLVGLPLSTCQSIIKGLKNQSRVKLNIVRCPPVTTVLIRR

APBA1_2, Q02410 = target: T2, APBA1_2, Q02410
T2 sequence (Q02410 742-832, limits assumed, looked up): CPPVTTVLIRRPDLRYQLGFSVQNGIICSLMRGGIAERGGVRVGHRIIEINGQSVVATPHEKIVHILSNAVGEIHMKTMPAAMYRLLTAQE

ARHGAP21, Q5T5U3 = target: T3, ARHGAP21, Q5T5U3
T3 sequence (Q5T5U3 45-169, limits assumed, looked up): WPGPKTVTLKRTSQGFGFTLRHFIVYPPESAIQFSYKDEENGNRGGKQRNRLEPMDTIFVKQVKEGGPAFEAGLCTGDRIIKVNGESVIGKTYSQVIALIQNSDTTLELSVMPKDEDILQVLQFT

ARHGEF11, O15085 = target: T4, ARHGEF11, O15085
T4 sequence (O15085 42-136, limits assumed, looked up): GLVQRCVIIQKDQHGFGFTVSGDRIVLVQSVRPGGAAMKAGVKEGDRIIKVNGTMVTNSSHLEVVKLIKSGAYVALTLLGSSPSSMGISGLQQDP

DLG2_3, Q15700 = target: DLG2_3, Q15700
DLG4_1, P78352 = target: DLG4_1, P78352
FRMPD2_1, Q68DX3 = target: FRMPD2_1, Q68DX3
FRMPD2_2, Q68DX3 = target: FRMPD2_2, Q68DX3
GRID2IP_1, A4D2P6 = target: GRID2IP_1, A4D2P6
Inadl_2, Q8NI35 = target: Inadl_2, Q8NI35
Inadl_4, Q8NI35 = target: Inadl_4, Q8NI35
Inadl_8, Q8NI35 = target: Inadl_8, Q8NI35
LDB3, O75112 = target: LDB3, O75112
LIN7C, Q9NUP9 = target: T5, LIN7C, Q9NUP9
T5 sequence (Q9NUP9 88-185, limits assumed, looked up): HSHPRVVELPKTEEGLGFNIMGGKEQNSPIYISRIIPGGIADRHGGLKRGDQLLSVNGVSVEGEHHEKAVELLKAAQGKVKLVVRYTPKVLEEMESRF

LNX2_3, Q8N448 = target: T6, LNX2_3, Q8N448
T6 sequence (Q8N448 463-564, limits assumed, looked up): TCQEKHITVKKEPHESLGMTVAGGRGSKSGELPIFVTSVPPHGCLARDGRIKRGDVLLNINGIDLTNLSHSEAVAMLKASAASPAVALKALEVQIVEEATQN

LRRC7, Q96NW7 = target: T7, LRRC7, Q96NW7
T7 sequence (Q96NW7 1440-1537, limits assumed, looked up): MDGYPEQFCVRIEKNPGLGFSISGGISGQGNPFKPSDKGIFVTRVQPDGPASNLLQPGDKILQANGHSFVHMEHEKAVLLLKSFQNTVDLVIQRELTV

MAGI2_3, Q86UL8 = target: MAGI2_3, Q86UL8
MAGI2_4, Q86UL8 = target: MAGI2_4, Q86UL8
MAGI3_2, Q5TCQ9 = target: MAGI3_2, Q5TCQ9
NHERF4_1, Q86UT5-2 = target: NHERF4_1, Q86UT5-2
NHERF4_2, Q86UT5 = target: NHERF4_2, Q86UT5
PARD3_3, Q8TEW0 = target: PARD3_3, Q8TEW0
PDLIM1, O00151 = target: PDLIM1, O00151
PTPN3, P26045 = target: PTPN3, P26045
RAPGEF6, Q8TEU7 = target: T8, RAPGEF6, Q8TEU7
T8 sequence (Q8TEU7 525-625, limits assumed, looked up): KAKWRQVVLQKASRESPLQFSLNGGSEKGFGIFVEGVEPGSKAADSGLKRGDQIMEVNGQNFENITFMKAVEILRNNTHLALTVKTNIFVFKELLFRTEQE

SCRIB_2, Q14160 = target: SCRIB_2, Q14160
SHANK1, Q9Y566 = target: T9, SHANK1, Q9Y566
T9 sequence (Q9Y566 658-767, limits assumed, looked up): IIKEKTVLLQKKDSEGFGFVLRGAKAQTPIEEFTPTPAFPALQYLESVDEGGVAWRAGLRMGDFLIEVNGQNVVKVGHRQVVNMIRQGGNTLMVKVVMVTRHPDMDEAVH

TJP3_3, O95049 = target: T10, TJP3_3, O95049
T10 sequence (O95049 375-456, limits assumed, looked up): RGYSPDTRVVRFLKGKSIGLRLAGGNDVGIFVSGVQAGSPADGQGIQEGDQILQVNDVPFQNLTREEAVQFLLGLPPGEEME

Chain of Inadl_8, Q8NI35 (Q8NI35 1425-1530): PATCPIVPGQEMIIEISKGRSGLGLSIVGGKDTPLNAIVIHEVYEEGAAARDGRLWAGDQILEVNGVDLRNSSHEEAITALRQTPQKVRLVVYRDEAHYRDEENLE
Chain of Inadl_4, Q8NI35 (Q8NI35 547-651): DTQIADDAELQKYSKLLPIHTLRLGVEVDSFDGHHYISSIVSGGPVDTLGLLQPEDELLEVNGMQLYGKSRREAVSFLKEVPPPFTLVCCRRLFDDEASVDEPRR
Chain of Inadl_2, Q8NI35 (Q8NI35 238-335): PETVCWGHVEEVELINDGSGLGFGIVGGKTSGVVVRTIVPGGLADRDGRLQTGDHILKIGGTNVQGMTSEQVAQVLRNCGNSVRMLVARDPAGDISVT
Chain of GRID2IP_1, A4D2P6 (A4D2P6 1-87): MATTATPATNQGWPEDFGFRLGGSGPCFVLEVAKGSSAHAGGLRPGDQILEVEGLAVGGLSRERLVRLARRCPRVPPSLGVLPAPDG
Chain of SCRIB_2, Q14160 (Q14160 857-960): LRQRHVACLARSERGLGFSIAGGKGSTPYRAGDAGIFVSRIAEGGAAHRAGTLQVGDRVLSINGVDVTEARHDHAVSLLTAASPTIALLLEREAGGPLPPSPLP
Chain of NHERF4_1, Q86UT5-2 (Q86UT5 other isoform, or with tags, fused parts or gaps): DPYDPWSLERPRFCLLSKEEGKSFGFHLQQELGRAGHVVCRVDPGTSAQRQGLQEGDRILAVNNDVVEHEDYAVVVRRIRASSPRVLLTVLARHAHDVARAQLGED
Chain of FRMPD2_1, Q68DX3 (Q68DX3 770-861): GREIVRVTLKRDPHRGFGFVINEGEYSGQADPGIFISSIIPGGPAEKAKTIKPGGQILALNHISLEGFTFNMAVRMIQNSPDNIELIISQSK
Chain of PARD3_3, Q8TEW0 (Q8TEW0 582-685): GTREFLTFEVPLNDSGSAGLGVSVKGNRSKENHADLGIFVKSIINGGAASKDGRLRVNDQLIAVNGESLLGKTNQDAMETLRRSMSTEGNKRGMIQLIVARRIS
Chain of PDLIM1, O00151 (O00151 1-87): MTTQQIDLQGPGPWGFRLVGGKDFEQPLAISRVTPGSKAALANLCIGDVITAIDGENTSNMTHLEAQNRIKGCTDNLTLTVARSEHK
Chain of LDB3, O75112 (O75112 1-94): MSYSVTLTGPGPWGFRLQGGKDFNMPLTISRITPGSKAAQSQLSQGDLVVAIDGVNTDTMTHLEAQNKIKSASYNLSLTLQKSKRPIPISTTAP
Chain of MAGI3_2, Q5TCQ9 (Q5TCQ9 398-503): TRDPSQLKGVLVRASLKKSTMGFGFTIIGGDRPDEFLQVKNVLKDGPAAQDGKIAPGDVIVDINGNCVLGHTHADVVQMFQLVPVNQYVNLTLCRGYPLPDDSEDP
Chain of DLG4_1, P78352 (P78352 62-152): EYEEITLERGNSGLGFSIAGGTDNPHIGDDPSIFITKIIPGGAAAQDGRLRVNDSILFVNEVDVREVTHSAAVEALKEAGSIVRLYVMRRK
Chain of MAGI2_4, Q86UL8 (Q86UL8 772-865): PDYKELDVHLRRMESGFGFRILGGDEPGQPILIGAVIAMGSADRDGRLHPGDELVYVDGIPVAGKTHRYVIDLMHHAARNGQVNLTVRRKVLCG
Chain of PTPN3, P26045 (P26045 505-587): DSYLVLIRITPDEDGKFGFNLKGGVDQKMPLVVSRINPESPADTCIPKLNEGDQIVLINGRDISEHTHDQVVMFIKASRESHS
Chain of NHERF4_2, Q86UT5 (Q86UT5 220-308): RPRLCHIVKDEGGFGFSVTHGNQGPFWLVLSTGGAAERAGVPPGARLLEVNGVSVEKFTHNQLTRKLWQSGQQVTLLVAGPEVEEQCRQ
Chain of FRMPD2_2, Q68DX3 (Q68DX3 944-1038): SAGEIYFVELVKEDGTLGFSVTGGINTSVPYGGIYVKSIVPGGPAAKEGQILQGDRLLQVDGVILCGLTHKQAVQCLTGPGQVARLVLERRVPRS
Chain of MAGI2_3, Q86UL8 (Q86UL8 600-682): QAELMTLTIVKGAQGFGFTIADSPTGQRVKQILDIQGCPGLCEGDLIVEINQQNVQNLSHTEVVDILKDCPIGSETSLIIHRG

B1: GUCY1A2, P33402 (peptide)
chain: GTMFLRETSL
pKd (APBA1_1, Q02410): below the threshold
pKd (APBA1_2, Q02410): 3.61
pKd (ARHGAP21, Q5T5U3): 4.7
pKd (ARHGEF11, O15085): 4.52
pKd (DLG2_3, Q15700): 4.79
pKd (DLG4_1, P78352): 4.03
pKd (FRMPD2_1, Q68DX3): below the threshold
pKd (FRMPD2_2, Q68DX3): below the threshold
pKd (GRID2IP_1, A4D2P6): below the threshold
pKd (Inadl_2, Q8NI35): below the threshold
pKd (Inadl_4, Q8NI35): below the threshold
pKd (Inadl_8, Q8NI35): 3.9
pKd (LDB3, O75112): below the threshold
pKd (LIN7C, Q9NUP9): 4.83
pKd (LNX2_3, Q8N448): below the threshold
pKd (LRRC7, Q96NW7): 4.33
pKd (MAGI2_3, Q86UL8): 3.71
pKd (MAGI2_4, Q86UL8): below the threshold
pKd (MAGI3_2, Q5TCQ9): 4.46
pKd (NHERF4_1, Q86UT5-2): 4.54
pKd (NHERF4_2, Q86UT5): below the threshold
pKd (PARD3_3, Q8TEW0): below the threshold
pKd (PDLIM1, O00151): 3.78
pKd (PTPN3, P26045): 5.04
pKd (RAPGEF6, Q8TEU7): below the threshold
pKd (SCRIB_2, Q14160): 5.15
pKd (SHANK1, Q9Y566): 4.33
pKd (TJP3_3, O95049): below the threshold

B2: SDC3, O75056 (peptide)
chain: KPDKQEEFYA
pKd (APBA1_1, Q02410): below the threshold
pKd (APBA1_2, Q02410): below the threshold
pKd (ARHGAP21, Q5T5U3): below the threshold
pKd (ARHGEF11, O15085): below the threshold
pKd (DLG2_3, Q15700): 3.64
pKd (DLG4_1, P78352): below the threshold
pKd (FRMPD2_1, Q68DX3): below the threshold
pKd (FRMPD2_2, Q68DX3): below the threshold
pKd (GRID2IP_1, A4D2P6): below the threshold
pKd (Inadl_2, Q8NI35): below the threshold
pKd (Inadl_4, Q8NI35): below the threshold
pKd (Inadl_8, Q8NI35): below the threshold
pKd (LDB3, O75112): below the threshold
pKd (LIN7C, Q9NUP9): below the threshold
pKd (LNX2_3, Q8N448): below the threshold
pKd (LRRC7, Q96NW7): below the threshold
pKd (MAGI2_3, Q86UL8): below the threshold
pKd (MAGI2_4, Q86UL8): below the threshold
pKd (MAGI3_2, Q5TCQ9): below the threshold
pKd (NHERF4_1, Q86UT5-2): below the threshold
pKd (NHERF4_2, Q86UT5): below the threshold
pKd (PARD3_3, Q8TEW0): below the threshold
pKd (PDLIM1, O00151): below the threshold
pKd (PTPN3, P26045): 3.8
pKd (RAPGEF6, Q8TEU7): below the threshold
pKd (SCRIB_2, Q14160): below the threshold
pKd (SHANK1, Q9Y566): below the threshold
pKd (TJP3_3, O95049): below the threshold

B3: SEMA4F, O95754 (peptide)
chain: PLATCDETSI
pKd (APBA1_1, Q02410): below the threshold
pKd (APBA1_2, Q02410): below the threshold
pKd (ARHGAP21, Q5T5U3): below the threshold
pKd (ARHGEF11, O15085): below the threshold
pKd (DLG2_3, Q15700): 3.9
pKd (DLG4_1, P78352): below the threshold
pKd (FRMPD2_1, Q68DX3): below the threshold
pKd (FRMPD2_2, Q68DX3): 3.53
pKd (GRID2IP_1, A4D2P6): below the threshold
pKd (Inadl_2, Q8NI35): below the threshold
pKd (Inadl_4, Q8NI35): below the threshold
pKd (Inadl_8, Q8NI35): below the threshold
pKd (LDB3, O75112): below the threshold
pKd (LIN7C, Q9NUP9): below the threshold
pKd (LNX2_3, Q8N448): below the threshold
pKd (LRRC7, Q96NW7): below the threshold
pKd (MAGI2_3, Q86UL8): below the threshold
pKd (MAGI2_4, Q86UL8): below the threshold
pKd (MAGI3_2, Q5TCQ9): below the threshold
pKd (NHERF4_1, Q86UT5-2): below the threshold
pKd (NHERF4_2, Q86UT5): below the threshold
pKd (PARD3_3, Q8TEW0): 3.9
pKd (PDLIM1, O00151): below the threshold
pKd (PTPN3, P26045): 4.72
pKd (RAPGEF6, Q8TEU7): below the threshold
pKd (SCRIB_2, Q14160): 4.39
pKd (SHANK1, Q9Y566): 3.87
pKd (TJP3_3, O95049): below the threshold

B4: TBPL1, P62380 (peptide)
chain: FVFESRKEIL
pKd (APBA1_1, Q02410): below the threshold
pKd (APBA1_2, Q02410): below the threshold
pKd (ARHGAP21, Q5T5U3): 3.83
pKd (ARHGEF11, O15085): below the threshold
pKd (DLG2_3, Q15700): below the threshold
pKd (DLG4_1, P78352): below the threshold
pKd (FRMPD2_1, Q68DX3): below the threshold
pKd (FRMPD2_2, Q68DX3): below the threshold
pKd (GRID2IP_1, A4D2P6): below the threshold
pKd (Inadl_2, Q8NI35): below the threshold
pKd (Inadl_4, Q8NI35): below the threshold
pKd (Inadl_8, Q8NI35): below the threshold
pKd (LDB3, O75112): below the threshold
pKd (LIN7C, Q9NUP9): 3.95
pKd (LNX2_3, Q8N448): below the threshold
pKd (LRRC7, Q96NW7): below the threshold
pKd (MAGI2_3, Q86UL8): below the threshold
pKd (MAGI2_4, Q86UL8): below the threshold
pKd (MAGI3_2, Q5TCQ9): below the threshold
pKd (NHERF4_1, Q86UT5-2): 4.08
pKd (NHERF4_2, Q86UT5): below the threshold
pKd (PARD3_3, Q8TEW0): below the threshold
pKd (PDLIM1, O00151): below the threshold
pKd (PTPN3, P26045): below the threshold
pKd (RAPGEF6, Q8TEU7): below the threshold
pKd (SCRIB_2, Q14160): below the threshold
pKd (SHANK1, Q9Y566): below the threshold
pKd (TJP3_3, O95049): below the threshold

B5: GRK6, P43250 (peptide)
chain: DSEEELPTRL
pKd (APBA1_1, Q02410): below the threshold
pKd (APBA1_2, Q02410): 4.16
pKd (ARHGAP21, Q5T5U3): 4.22
pKd (ARHGEF11, O15085): 3.78
pKd (DLG2_3, Q15700): below the threshold
pKd (DLG4_1, P78352): below the threshold
pKd (FRMPD2_1, Q68DX3): below the threshold
pKd (FRMPD2_2, Q68DX3): below the threshold
pKd (GRID2IP_1, A4D2P6): below the threshold
pKd (Inadl_2, Q8NI35): below the threshold
pKd (Inadl_4, Q8NI35): below the threshold
pKd (Inadl_8, Q8NI35): below the threshold
pKd (LDB3, O75112): below the threshold
pKd (LIN7C, Q9NUP9): below the threshold
pKd (LNX2_3, Q8N448): below the threshold
pKd (LRRC7, Q96NW7): below the threshold
pKd (MAGI2_3, Q86UL8): below the threshold
pKd (MAGI2_4, Q86UL8): 3.47
pKd (MAGI3_2, Q5TCQ9): below the threshold
pKd (NHERF4_1, Q86UT5-2): 4.22
pKd (NHERF4_2, Q86UT5): below the threshold
pKd (PARD3_3, Q8TEW0): 4.09
pKd (PDLIM1, O00151): below the threshold
pKd (PTPN3, P26045): 3.77
pKd (RAPGEF6, Q8TEU7): below the threshold
pKd (SCRIB_2, Q14160): below the threshold
pKd (SHANK1, Q9Y566): 4.71
pKd (TJP3_3, O95049): below the threshold
